In US20250361297A1, “ANTI- SIGLEC-15 BINDING MOLECULES AND METHODS OF USE” (ADAPTAM THERAPEUTICS, S.L., priority 2024, published 2025):

Tested on: recombinant cynomolgus Siglec-15 protein
Experiment: ELISA binding to recombinant cynomolgus Siglec-15 protein
Set-up: species or system cynomolgus monkey
Conditions: ELISA (FIG. 11B)
Protocol: Binding to human, cynomolgus and mouse Siglec-15 by ELISA: 96-well micro plates were coated with 50 μl of 2 μg/ml cynomolgus Siglec-15-his protein (Bonopusbio, CW70-50 ug), or 2 μg/ml mouse Siglec-15-his protein (Bonopusbio, CW71-50 ug), or 2 μg/ml human Siglec-15-his protein (Bonopusbio, CW37-50 ug) in carbonate/bicarbonate buffer (pH 9.6) overnight at 4° C. ELISA plates were washed once with wash buffer (PBS+0.1% v/v Tween-20, PBST) and then blocked with 200 μl/well blocking buffer (3% w/v non-fatty milk in PBST) 1 hour at room temperature. Plates were washed 3 times and incubated with […] serially diluted anti-Siglec-15 antibodies of the disclosure or controls (starting at 198 nM, 3-fold serial dilution in PBST with 1% w/v non-fatty milk) for 2 hours at room temperature. ELISA plates were washed 3 times again and incubated with Peroxidase Goat anti-Human IgG Fc Secondary Antibody (100 μl, 1:5000 dilution in PBST buffer, A18817 Thermo Scientific) for 1 hour at room temperature. After another 3 washes, plates were incubated with 100 μl/well TMB (N301, Thermo Scientific). The reaction was stopped 2 minutes later at room temperature with 50 μl of STOP solution (N600, Thermo Scientific), and the absorbance of each well was read on a NIVO microplate reader at 450. OD values were plotted against antibody concentration. Data was analyzed using Graphpad Prism software.

Sequence of recombinant cynomolgus Siglec-15 protein (as listed by the source): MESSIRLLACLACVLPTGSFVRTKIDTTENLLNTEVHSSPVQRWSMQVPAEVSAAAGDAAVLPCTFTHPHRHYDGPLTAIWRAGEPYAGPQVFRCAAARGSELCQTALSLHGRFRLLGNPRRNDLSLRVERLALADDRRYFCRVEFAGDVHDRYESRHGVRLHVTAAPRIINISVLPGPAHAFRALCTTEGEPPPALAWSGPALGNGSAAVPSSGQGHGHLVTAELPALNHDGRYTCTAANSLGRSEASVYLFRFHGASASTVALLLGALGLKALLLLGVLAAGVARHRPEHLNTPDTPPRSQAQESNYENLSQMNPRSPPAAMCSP

- extent of binding to cynomolgus Siglec-15 relative to 5G12: higher extent than 5G12
B1: S15B1: parental mouse anti-Siglec-15 monoclonal antibody from hybridoma; VH SEQ ID NO: 18, VL SEQ ID NO: 19 (antibody, V domains shown)
VH: QVQLQQSGPELVKPGASVKISCKASGYAFSSSWMNWVKQRPGKGLEWIGRIYPGHGETNYNGKFKDKATVTADKSSSTTYMQLSSLTSEDSAVYFCARVDNSDPYYFDYWGQGTTLTVSS
VL: DIVLTQSPASLAVSLGQRATISCRASKSVSTSGYSYMHWYQQKPGQPPKLLIYLASNLESGVPARFSGSGSGTDFTLNIHPVEEEDAATYYCQHGRELPFTFGSGTKLEIK
modifications: Clone S15B1 VH; Clone S15B1 VL
